Assay [1] has as its target p85α subunit of PI3-kinase (bovine, full length, recombinant) (bovine) (UniProt P23727).
Assay [2] concerns the target T1, PI3-kinase p85α/p110 complex (wild type, recombinant, expressed in Sf9 cells) (Bos taurus, UniProt P32871).
T1 construct: made in house; host or cells: Sf9 insect cells (baculovirus co-infection)
The experiment in a line: in vitro PI3-kinase assay on anti-p110 immunoprecipitates, p85α/p110 complex. It is filed as biochemical, bovine. Particulars: 0.25 h; 0.3 mM Nbs2, 15 minutes at 22° C; FIG. 17 A lane 3; read-out: loss of PI3-kinase activity. As for the experimental part:
(§1) Insect cells were infected with p85α/p110 complex, (see FIG. 17, A, lanes 1-6) or p110 alone, (see FIG. 17, B, lanes 7-12). The immunoprecipitates were washed twice with PI3-kinase buffer (20 mM Tris-HCl, pH 7.5, 100 mM NaCl, 0.5 mM EDTA). The samples were untreated or treated with 0.3 mM 5,5'-Dithio-bis [2-nitrobenzoic acid] (Nbs2) for 15 minutes at 22° C. Excess reagent was removed by washing the complexes three times with PI3-kinase buffer and the immunoprecipitate was then incubated for 15 minutes at 22° C. with increasing concentrations of dithiothreitol (DTT). A control sample was incubated with DTT alone at a final concentration of 300 mM. The remaining DTT was removed by washing with lysis buffer and the immunoprecipitates were subjected to PI3-kinase assays or to in vitro protein kinase assays described below.
(§2) The experiment was carried out and the experimental results set forth in FIG. 17, A. In vitro PI3-kinase assays were performed on anti-p110 immunoprecipitates of these cells that had been treated as follows: untreated (see FIG. 17, A, lane 1 and 7); 300 mM DTT (lanes 2 and 8); treated with 0.3 mM Nbs2 (lanes 3 and 9); immunoprecipitates pretreated with 0.3 mM Nbs2 incubated with 3 mM DTT (lanes 4 and 10), 30 mM DTT (lanes 5 and 11); 300 mM DTT (lanes 6 and 12).

For assay [3], the target named is T2, PI3-kinase p110 subunit alone (wild type, recombinant, expressed in Sf9 cells) (Bos taurus, UniProt P32871).
T2 construct: made in house; host or cells: Sf9 insect cells (baculovirus)
The experiment in a line: in vitro PI3-kinase assay on anti-p110 immunoprecipitates, p110 alone. It is filed as biochemical, bovine. The following applies: 0.25 h; 0.3 mM Nbs2, 15 minutes at 22° C; FIG. 17 A lane 9; read-out: loss of PI3-kinase activity. As for the experimental part:
as §1, §2

In assay [4] the target is p110 subunit of PI3-kinase (bovine, wild type, recombinant) (bovine) (UniProt P32871). The experiment in a line: GST fusion on glutathione-sepharose, p110 Sf9 lysate, bound PI3-kinase activity.
In assay [5] the target is p85α subunit of PI3-kinase (bovine, full length, recombinant) (bovine, UniProt P23727). The experiment in a line: GST-p110 fusion pull-down from Sf9 lysate expressing p85α.
Assay [6] concerns the target p85β subunit of PI3-kinase (bovine, full length, recombinant) (bovine, UniProt P23726). The experiment in a line: GST-p110 fusion pull-down from Sf9 lysate expressing p85β.
Assay [7] deals with p110 subunit of PI3-kinase (bovine, wild type, recombinant) (bovine, UniProt P32871). The experiment in a line: GST fusion on glutathione-sepharose, p110 Sf9 lysate, bound PI3-kinase activity. As for the experimental part: GST fusion proteins of the various subdomains of p85α were constructed and immobilized on glutathione-sepharose beads, See FIG. 2, A. These proteins were used for affinity analysis with cell lysates prepared from Sf9 cells infected with a recombinant baculovirus expressing p110. The complexes were washed and subjected to PI3-kinase activity. GST alone, and GST p85α bound to glutathione-sepharose beads incubated with wild-type lysate were used as controls.

This is an account of results in US5741689A, “Methods to inhibit serine kinase activity and to alter intersubunit binding activity of phosphatidylinositol 3-kinase, and serine kinase active sequence of the same” (Ludwig Institute for Cancer Research, priority 1994, dated 1998).

T2 sequence (P32871 whole entry): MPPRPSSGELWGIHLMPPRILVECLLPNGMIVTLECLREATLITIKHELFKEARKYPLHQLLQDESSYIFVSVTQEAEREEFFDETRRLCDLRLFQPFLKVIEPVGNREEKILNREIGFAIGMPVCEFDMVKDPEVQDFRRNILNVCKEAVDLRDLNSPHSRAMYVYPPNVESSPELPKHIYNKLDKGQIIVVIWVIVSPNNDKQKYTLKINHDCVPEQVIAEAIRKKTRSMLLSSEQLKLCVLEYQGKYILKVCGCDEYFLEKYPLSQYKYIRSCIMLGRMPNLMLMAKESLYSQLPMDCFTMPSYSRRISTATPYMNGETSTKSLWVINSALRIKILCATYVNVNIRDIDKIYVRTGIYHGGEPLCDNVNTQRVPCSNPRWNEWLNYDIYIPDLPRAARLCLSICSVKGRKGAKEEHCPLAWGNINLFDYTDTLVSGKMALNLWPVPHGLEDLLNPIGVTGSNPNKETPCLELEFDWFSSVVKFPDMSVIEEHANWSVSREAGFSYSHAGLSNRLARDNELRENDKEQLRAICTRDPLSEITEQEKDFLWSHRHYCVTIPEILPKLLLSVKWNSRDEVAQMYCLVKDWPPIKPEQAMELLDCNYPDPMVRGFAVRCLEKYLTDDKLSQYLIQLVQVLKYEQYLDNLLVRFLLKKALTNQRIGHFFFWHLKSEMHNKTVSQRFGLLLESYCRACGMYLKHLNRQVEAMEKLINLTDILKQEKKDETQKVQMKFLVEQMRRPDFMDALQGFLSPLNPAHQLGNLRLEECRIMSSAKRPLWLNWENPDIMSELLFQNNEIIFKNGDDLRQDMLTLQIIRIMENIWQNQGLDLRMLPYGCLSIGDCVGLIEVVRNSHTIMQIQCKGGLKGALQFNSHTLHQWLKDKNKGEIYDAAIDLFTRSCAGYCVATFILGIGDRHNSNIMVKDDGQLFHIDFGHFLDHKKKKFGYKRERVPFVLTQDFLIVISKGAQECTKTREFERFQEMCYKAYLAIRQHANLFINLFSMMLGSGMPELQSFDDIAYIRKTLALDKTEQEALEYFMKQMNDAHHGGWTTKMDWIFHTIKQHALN
T1 sequence (P32871 whole entry): as above
T1 sequence (P23727 whole entry partner): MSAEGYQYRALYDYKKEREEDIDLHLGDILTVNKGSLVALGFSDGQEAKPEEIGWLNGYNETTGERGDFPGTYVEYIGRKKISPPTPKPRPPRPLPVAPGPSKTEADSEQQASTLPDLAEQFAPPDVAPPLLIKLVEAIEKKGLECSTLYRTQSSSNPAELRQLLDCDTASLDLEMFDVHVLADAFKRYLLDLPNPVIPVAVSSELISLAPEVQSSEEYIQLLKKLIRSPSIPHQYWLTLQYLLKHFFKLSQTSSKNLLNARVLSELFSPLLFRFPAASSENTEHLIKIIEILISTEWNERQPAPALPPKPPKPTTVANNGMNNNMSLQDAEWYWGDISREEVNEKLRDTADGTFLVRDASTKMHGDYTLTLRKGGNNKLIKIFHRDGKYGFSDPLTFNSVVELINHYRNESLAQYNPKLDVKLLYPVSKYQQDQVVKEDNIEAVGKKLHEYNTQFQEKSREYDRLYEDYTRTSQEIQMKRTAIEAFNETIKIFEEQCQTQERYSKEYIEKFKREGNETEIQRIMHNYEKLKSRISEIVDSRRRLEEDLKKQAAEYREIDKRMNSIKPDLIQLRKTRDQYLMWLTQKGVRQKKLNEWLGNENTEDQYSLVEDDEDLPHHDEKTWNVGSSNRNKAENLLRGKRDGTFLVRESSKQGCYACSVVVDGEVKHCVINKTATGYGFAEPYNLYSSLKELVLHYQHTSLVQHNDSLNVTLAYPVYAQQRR

As for “p110 subunit of PI3-kinase (bovine, wild type, recombinant) (from UniProt P32871) (enzyme)”, in assay [1], the stoichiometry of phosphorylation of p85α, in vitro protein kinase assay (mol of phosphate per mol of p85α) was found to be 0.9.
As to `O=C(O)c1cc(SSc2ccc([N+](=O)[O-])c(C(=O)O)c2)ccc1[N+](=O)[O-]` [Nbs2, 5,5'-Dithio-bis [2-nitrobenzoic acid]], the inhibition at 300 µM in assay [2] and in assay [3] was approximately 95% in each case.
In the case of GST-85βΔ445-469 (from UniProt P23726), in assay [4], the percent of the PI3-kinase activity bound as compared to wild type GSTp85β worked out at 65%.
The same measure, in the same setting: for GST-85βΔ486-516 (from UniProt P23726) the value was 65%.

B1: GST-p110 fusion protein p110-1.7 (amino acids 37-128) (other)
chain: LREATLITIKHELFKEARKYPLHQLLQDESSYIFVSVTQEAEREEFFDETRRLCDLRLFQPFLKVIEPVGNREEKILNREIGFAIGMPVCEF
With B1, the binding result in assay [5] and in assay [6] was “no binding” in each case.

B2: GST fusion of the BCR homology region of p85α (amino acids 125-322) (other)
chain: PDVAPPLLIKLVEAIEKKGLECSTLYRTQSSSNPAELRQLLDCDTASLDLEMFDVHVLADAFKRYLLDLPNPVIPVAVSSELISLAPEVQSSEEYIQLLKKLIRSPSIPHQYWLTLQYLLKHFFKLSQTSSKNLLNARVLSELFSPLLFRFPAASSENTEHLIKIIEILISTEWNERQPAPALPPKPPKPTTVANNGM
Consider B2, for which the binding result in assay [7] is on record as “no binding”.

B3: GST-p110 fusion protein p110-3 (amino acids 577-1068) (other)
chain: RDEVAQMYCLVKDWPPIKPEQAMELLDCNYPDPMVRGFAVRCLEKYLTDDKLSQYLIQLVQVLKYEQYLDNLLVRFLLKKALTNQRIGHFFFWHLKSEMHNKTVSQRFGLLLESYCRACGMYLKHLNRQVEAMEKLINLTDILKQEKKDETQKVQMKFLVEQMRRPDFMDALQGFLSPLNPAHQLGNLRLEECRIMSSAKRPLWLNWENPDIMSELLFQNNEIIFKNGDDLRQDMLTLQIIRIMENIWQNQGLDLRMLPYGCLSIGDCVGLIEVVRNSHTIMQIQCKGGLKGALQFNSHTLHQWLKDKNKGEIYDAAIDLFTRSCAGYCVATFILGIGDRHNSNIMVKDDGQLFHIDFGHFLDHKKKKFGYKRERVPFVLTQDFLIVISKGAQECTKTREFERFQEMCYKAYLAIRQHANLFINLFSMMLGSGMPELQSFDDIAYIRKTLALDKTEQEALEYFMKQMNDAHHGGWTTKMDWIFHTIKQHALN
With B3, the binding result in assay [5] and in assay [6] was “no binding” in each case.

B4: GST fusion of the SH3 domain of p85α (amino acids 1-86) (other)
chain: MSAEGYQYRALYDYKKEREEDIDLHLGDILTVNKGSLVALGFSDGQEAKPEEIGWLNGYNETTGERGDFPGTYVEYIGRKKISPPT
With B4, the binding result in assay [7] is given as “no binding”.

B5: GST-p110 fusion protein p110-5 (amino acids 760-960) (other)
chain: QLGNLRLEECRIMSSAKRPLWLNWENPDIMSELLFQNNEIIFKNGDDLRQDMLTLQIIRIMENIWQNQGLDLRMLPYGCLSIGDCVGLIEVVRNSHTIMQIQCKGGLKGALQFNSHTLHQWLKDKNKGEIYDAAIDLFTRSCAGYCVATFILGIGDRHNSNIMVKDDGQLFHIDFGHFLDHKKKKFGYKRERVPFVLTQDF
As to B5, the binding result in assay [5] and in assay [6] was “no binding” each time.

B6: GST-p110 fusion protein p110-4 (amino acids 601-960) (other)
chain: LLDCNYPDPMVRGFAVRCLEKYLTDDKLSQYLIQLVQVLKYEQYLDNLLVRFLLKKALTNQRIGHFFFWHLKSEMHNKTVSQRFGLLLESYCRACGMYLKHLNRQVEAMEKLINLTDILKQEKKDETQKVQMKFLVEQMRRPDFMDALQGFLSPLNPAHQLGNLRLEECRIMSSAKRPLWLNWENPDIMSELLFQNNEIIFKNGDDLRQDMLTLQIIRIMENIWQNQGLDLRMLPYGCLSIGDCVGLIEVVRNSHTIMQIQCKGGLKGALQFNSHTLHQWLKDKNKGEIYDAAIDLFTRSCAGYCVATFILGIGDRHNSNIMVKDDGQLFHIDFGHFLDHKKKKFGYKRERVPFVLTQDF
On to B6, for which the binding result in assay [5] and in assay [6] was “no binding” each time.
As to MPPRPSSGELWGIHLMPPRILVECLLPNGMIVTLECLREATLITIKHEL (other) [GST-p110 fusion protein p110-1.1 (amino acids 1-49)], the binding result in assay [5] and in assay [6] was “no binding” in each case.

B7: GSTp85β(516-724) (other)
chain: RILLNSERLKSRIAEIHESRTKLEQELRAQASDNREIDKRMNSLKPDLMQLRKIRDQYLVWLTQKGARQKKINEWLGIKNETEDQYSLMEDEDDLPHHEERTWYVGKINRTQAEEMLSGKRDGTFLIRESSQRGCYACSVVVDGDTKHCVIYRTATGFGFAEPYNLYGSLKELVLHYQHASLVQHNDALTVTLAHPVRAPGPGPPPAAR
As for B7, the binding result in assay [7] is “no binding”.

B8: GSTp85β(486-724) (other)
chain: IFEEQGQTQEKCSKEYLERFRREGNEKEMQRILLNSERLKSRIAEIHESRTKLEQELRAQASDNREIDKRMNSLKPDLMQLRKIRDQYLVWLTQKGARQKKINEWLGIKNETEDQYSLMEDEDDLPHHEERTWYVGKINRTQAEEMLSGKRDGTFLIRESSQRGCYACSVVVDGDTKHCVIYRTATGFGFAEPYNLYGSLKELVLHYQHASLVQHNDALTVTLAHPVRAPGPGPPPAAR
As for B8, the binding result in assay [7] is “no binding”.

B9: GST-p110 fusion protein p110-1.4 (amino acids 20-81) (other)
chain: ILVECLLPNGMIVTLECLREATLITIKHELFKEARKYPLHQLLQDESSYIFVSVTQEAEREE
With B9, the binding result in assay [5] and in assay [6] was “no binding” each time.

B10: GST-p110 fusion protein p110-1.2 (amino acids 1-81) (other)
chain: MPPRPSSGELWGIHLMPPRILVECLLPNGMIVTLECLREATLITIKHELFKEARKYPLHQLLQDESSYIFVSVTQEAEREE
B10: the binding result in assay [5] and in assay [6] was “no binding” each time.

B11: GST-p110 fusion protein p110-6 (amino acids 760-1069) (other)
chain: QLGNLRLEECRIMSSAKRPLWLNWENPDIMSELLFQNNEIIFKNGDDLRQDMLTLQIIRIMENIWQNQGLDLRMLPYGCLSIGDCVGLIEVVRNSHTIMQIQCKGGLKGALQFNSHTLHQWLKDKNKGEIYDAAIDLFTRSCAGYCVATFILGIGDRHNSNIMVKDDGQLFHIDFGHFLDHKKKKFGYKRERVPFVLTQDFLIVISKGAQECTKTREFERFQEMCYKAYLAIRQHANLFINLFSMMLGSGMPELQSFDDIAYIRKTLALDKTEQEALEYFMKQMNDAHHGGWTTKMDWIFHTIKQHALN
For B11, the binding result in assay [5] and in assay [6] was “no binding” throughout.
As for MPPRPSSGELWGIHLMPPRILVECLLPNGMIVTLE (other) [GST-p110 fusion protein p110-1.6 (amino acids 1-35)], the binding result in assay [5] and in assay [6] was “no binding” in each case.
